According to US20100136018A1 (Ablynx, published 2010):
Numbering of substitutions follows the chain as printed. Values belong to the binder of their own block, whether it stands above or below them.

Experiments:
[1] = target: T1, ectodomain of human pIgR (R&D Systems Cat #2717-PG) (human, UniProt P01833 19-638); assay: designation in the sequence table; clones from phage selection and ELISA screening on pIgR ectodomain
T1 construct: extracellular domain; Bought protein, immobilised on Maxisorp plates; also called pIgR ectodomain
T1 sequence (P01833 19-638): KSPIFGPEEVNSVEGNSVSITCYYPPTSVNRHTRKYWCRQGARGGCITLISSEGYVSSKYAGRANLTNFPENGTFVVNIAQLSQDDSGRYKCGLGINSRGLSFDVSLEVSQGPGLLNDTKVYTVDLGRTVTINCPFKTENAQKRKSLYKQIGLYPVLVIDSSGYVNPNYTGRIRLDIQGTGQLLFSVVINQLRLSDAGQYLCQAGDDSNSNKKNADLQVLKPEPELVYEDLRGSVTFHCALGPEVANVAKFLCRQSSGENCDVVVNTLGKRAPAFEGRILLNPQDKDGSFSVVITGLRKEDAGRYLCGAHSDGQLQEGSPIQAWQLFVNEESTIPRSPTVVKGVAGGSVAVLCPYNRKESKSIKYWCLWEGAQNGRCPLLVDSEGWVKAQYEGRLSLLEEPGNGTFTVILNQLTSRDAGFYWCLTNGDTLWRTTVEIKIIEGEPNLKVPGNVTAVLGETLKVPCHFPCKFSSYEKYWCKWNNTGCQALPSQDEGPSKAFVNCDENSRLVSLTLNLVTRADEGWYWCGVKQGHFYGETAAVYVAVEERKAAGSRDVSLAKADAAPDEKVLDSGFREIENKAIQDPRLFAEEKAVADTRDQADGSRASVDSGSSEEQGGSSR

[2] = target: T1, ectodomain of human pIgR (R&D Systems …); assay: ELISA, pIgR ectodomain coated at 5 ug/ml, 10 ul periplasmic extract in 100 ul, anti-myc detection
Method: (§1) In short, 5 ug/ml pIgR ectodomain was immobilized on Maxisorp microtiter plates (Nunc) and free binding sites were blocked using 4% Marvel in PBS. Next, 10 ul of periplasmic extract containing Nanobody of the different clones in 100 ul 2% Marvel PBST were allowed to bind to the immobilized antigen. […] Binding specificity was determined based on OD values compared to controls having received no Nanobody (low control).

[3] = target: T2, ectodomain of human FcgR1 (R&D Systems Cat #1257-FC) (human, UniProt P12314 16-292); assay: ELISA, FcgR1 ectodomain coated at 3 ug/ml, 10 ul periplasmic extract in 100 ul, anti-myc detection
T2 construct: extracellular domain; Bought protein, immobilised on Maxisorp plates; also called FcgR1 ectodomain; Fc gamma R1
T2 sequence (P12314 16-292): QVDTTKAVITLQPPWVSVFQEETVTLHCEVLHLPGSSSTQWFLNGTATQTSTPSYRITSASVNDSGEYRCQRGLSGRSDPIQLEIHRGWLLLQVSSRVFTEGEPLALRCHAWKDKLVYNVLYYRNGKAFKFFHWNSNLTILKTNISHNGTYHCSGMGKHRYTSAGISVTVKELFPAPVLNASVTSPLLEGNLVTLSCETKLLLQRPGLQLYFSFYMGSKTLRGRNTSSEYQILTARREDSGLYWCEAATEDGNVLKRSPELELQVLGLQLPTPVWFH
Method: as §1, with “3” for “5”, “FcgR1” for “pIgR”

[4] = target: T2, ectodomain of human FcgR1 (R&D Systems …); assay: designation in the sequence table; clones from phage selection and ELISA screening on FcgR1 ectodomain
[5] = target: T1, ectodomain of human pIgR (R&D Systems …); assay: competition ELISA, pIgR ectodomain coated at 5 ug/ml, 1 ug/ml IgA preincubated with purified Nanobody at 1600, 200, 25 and 3.3 nM, bound IgA detected with anti-IgA; blocked ligand IgA

B1: 2_d2 (VHH)
VHH: EVQLVESGGGQVQAGGSLRLSCVASERTFSYYDLAARAWFRQAPGKERELVSASTWNGGYTYYVDSVKGRFTVSTDDAGDTMYLQMNSLEPEDTAVYYCAARRAYSSDLHDYRTFDYWGQGTQVTVSS
notes: Nanobody against pIgR
binding result [1]: binds

B2: 4 E9 (VHH)
VHH: EVQLVESGGGLVQAGGSLRLSCAASGSILSTNDMGWYRQAPGNQRELVARISRGSSTIYTESVKGRFTISRDNAKNTVYLQMNSLKPEDTAVYYCNADMLPSDLSHGYYYRDYWGQGTQVTVSS
notes: Nanobody against pIgR
binding result [1]: binds

B3: 4C11 (VHH)
VHH: EVQLVESGGGLVQPGGSLRLSCAASGFTFSSYAMTWVRQGLGKGLEWVSIISGNGGSTSYADSVKGRFTISRDNAKNTLYLQMNSLKPEDTAVYYCAKWDGLGTLPGSQGTQVTVSS
notes: Nanobody against pIgR
binding result [1]: binds

B4: 1B7 (VHH)
VHH: EVQLVESGGGLVQAGGSLRLSCAASGFTFDDYAIGWFRQAPGKEREWVSCISRSDGSTYYADSVKGRFTISSDNAKNTVYLQMNSLKPEDTAVYHCAADAIGSFPCPAGVYDYWGQGTQVTVSS
notes: Nanobody against pIgR
binding result [1]: binds

B5: 4G11 (VHH)
VHH: EVQLVESGGGLVQAGGSLRLSCAASGFTFDDYAIGWFRQAPGKEREGVSCISSRDGMTYYADSVKGRFTISSDNARNTVYLQMNSLKPEDTAVYYCAADLVGSFPCPVAAYDYWGQGTQVTVSS
notes: Nanobody against pIgR
binding result [1]: binds

B6: 4_g6 (VHH)
VHH: B5 VHH with M57T, R76K
notes: Nanobody against pIgR
binding result [2]: binds

B7: 4_h1 (VHH)
VHH: EVQLVKSGGGLVQAGDSLRLSCAASGRTSSSVTMGWFRQAPGKERDFVAAISWSGGSTYYADSVKGRFTISRDNAKNTVYLQMNSLKPEDTAVYYCAAVVPSDPIIYYTDYVDYDYWGQGTQVTVSS
notes: Nanobody against pIgR
binding result [2]: binds

B8: 49C5 (VHH)
VHH: EVQLVESGGGLVQAGGSLGLSCVASGRTFVSGGMGWFRQAPGKEREFVASIVWIGGRTYYADSVKGRFTISGDNAKSTVTLQMNSLKPEDTATYYCADGDLATGTYDYWGQGTQVTVSS
notes: Nanobody against FcgR1
binding result [3]: binds

B9: 49 E10 (VHH)
VHH: B8 VHH with G8V, A14T, G19R, S50A, T93L
notes: Nanobody against FcgR1
binding result [4]: binds

B10: 4_a7 (VHH)
VHH: EVQLVESGGGLVQAGGSLRLSCEDSGRTFGDYIMGWFRQAPGKERDFVAAISWTGDSTYYKYYSDSAKGRFTASRDNAKNTAYLQMNGLKPEDTAVYYCAARTFRIDYDPRTASTYNYWGQGIQVTVSS
notes: Nanobody against pIgR
binding result [2]: binds

B11: 2_f3 (VHH)
VHH: EVQLVESGGGLVQAGGSLRLSCAASGRTFTIYTMGWFRQAPGKAREFISALRWSGGSTYTFYADSVKGRFTISRDNAKNTLYLQMNSLKSEDTAIYYCGMVDPRAPYMRPDSTDSYAYWGQGTQVTVSS
notes: Nanobody against pIgR
binding result [1]: binds

B12: 1C7 (VHH)
VHH: EVQLVESGGGLVQPGGSLRLSCAASGFAFSRYGMYWVRQAPGKGLEWVSTINSGGDYIIYADSVKGRFTISRDNAKNTLYLQMNSLKPEDTAVYYCAEGYRGSEWPPPAFTLQRADFASWGQGTQVTVSS
notes: Nanobody against pIgR
binding result [1]: binds

B14: 1D7 (VHH)
VHH: EVQLVESGGGLVQSGGSLRLSCAASGRAFNYYAMGWFRQAPGKERELVAVINWSGGTTSYADSVKGRFTISRSNAKNTVYLQMSSLKPEDTAVYYCAADSIYRTSKDYNYWGQGTQVTVSS
notes: Nanobody against pIgR
IC50 (read off the curve) [5]: ~80 nM

B15: 48D11 (VHH)
VHH: EVQLVESGGGLVQAGDSLTLSCVASGRTFSNYGMGWFRQAPGKEREFVASINWGDGNTYYANSVKDRFAISKDHAKNTVYLQMNSLKPEDTALYYCAAVSSNTEIFDTWGQGIQVTVSS
notes: Nanobody against FcgR1
binding result [4]: binds

Results, then the binder that gave them:

binding result [2]: binds
B13: 1_g10 (VHH)
VHH: EVQLVESGGGLVQAGDSLRLSCAASGRTFSTYAMAWFRQAPGKDREFVAAISWSSDMTYYLDSVKGRFTISRDNAKNTVFLQMNSLKPEDTAVYYCASGAYYAGSSTSPYNYWGQGTQVTVSS
notes: Nanobody against pIgR

binding result [3]: binds
B16: 49F9 (VHH)
VHH: B15 VHH with S30N, D55N, N57K, S63P, I105T
notes: Nanobody against FcgR1

binding result [4]: binds
B17: 49F4 (VHH)
VHH: B15 VHH with N31A, Y32N, N52A, T103S, I105T
notes: Nanobody against FcgR1

binding result [3]: binds
B18: 49 E4 (VHH)
VHH: B15 VHH with S30N, D55N, N57K, I105T
notes: Nanobody against FcgR1

binding result [3]: binds
B19: 49D4 (VHH)
VHH: B15 VHH with T28R, N31A
notes: Nanobody against FcgR1

binding result [3]: binds
B20: 48D6 (VHH)
VHH: B15 VHH with N31A, D55G
notes: Nanobody against FcgR1

binding result [1]: binds
B21: 1 E2 (VHH)
VHH: EVQLVESGGGLVQAGGSLRLSCVASGFILREYNMGWFRQAPGKEREIVAAIAWTGTNSYYVDSVKGRFTISRDDTKNTVYLQMNSLNPEDTGVYHCAAEGYVSNFPRSSADEYDYWGQGTQVTVSS
notes: Nanobody against pIgR

binding result [1]: binds
B22: 4_e11 (VHH)
VHH: EVQLVESGGGLVQAGGSLRLSCAASGFTFDDYAIGWFRQAPGKEREGVSCINNSDGSTYYADSVKGRFTISSDNAKNTVYLQMNSLKPEDTAVYYCAADFVGGSYCLFPTYNYWGQGTQVTVSS
notes: Nanobody against pIgR

binding result [1]: binds
B23: 1C2 (VHH)
VHH: EVQLVESGGGLAQPGGSLRLSCAASGFAFSSYWMYWVRQAPGKGLEWVSAISTGGGGTYYADSVKGRFTISRDNAKNTLYLQMNSLKPEDTARYYCARDEAPTFDYSGNYAYTGSDPNDYWGQGTQVTVSS
notes: Nanobody against pIgR
